The source of these data is a protein production outcome set (Wang et al. 2014).

A short description of the series: label from the status in PepcDB records.

As to “MKMDYKEQSHIIPTYKRFDIVLEKGQGVYLFDDKAKKYLDFSSGIGVCALGYNHAKFNAKIKAQVDKLLHTSNLYYNENIAAAAKNLAKASALERVFFTNSGTESIEGAMKTARKYAFNKGVKGGQFIAFKHSFHGRTLGALSLTANEKYQKPFKPLISGVKFAKYNDISSVEKLVNEKTCAIILESVQGEGGINPANKDFYKALRKLCDEKDILLIADEIQCGMGRSGKFFAYEHAQILPDIMTSAKALGCGLSVGAFVINQKVASNSLEAGDHGSTYGGNPLVCAGVNAVFEIFKEEKILENVNKLTPYLEQSLDELINEFDFCKKRKGLGFMQGLSLDKSVKVAKVIQKCQENALLLISCGENDLRFLPPLILQKEHIDEMSEKLRKALKSF”, the protein production result is “not failed”.

For the sequence “MKMISTIQKKETVMVAPIPAKRGRKPAVATAPATGQVQSLTRGLKLLEWIAESNGSVALTELAQQAGLPNSTTHRLLTTMQQQGFVRQVGELGHWAIGAHAFMVGSSFLQSRNLLAIVHPILRNLMEESGETVNMAVLDQSDHEAIIIDQVQCTHLMRMSAPIGGKLPMHASGAGKAFLAQLSEEQVTKLLHRKGLHAYTHATLVSPVHLKEDLAQTRKRGYSFDDEEHALGLRCLAACIFDEHREPFAAISISGPISRITDDRVTEFGAMVIKAAKEVTLAYGGMR”, the protein production result was “not failed”.

“MKNFFNHIELKFANLLSKISFMLLMVVGLLMVYFLFREVYNLVLLAFLSESEVHYYDILESILSFFIFFEFLTLIITSLRNKGHVSLIFLLSLGITSLIRLLLTYHERLVGVLLIASAILILIIGVFVLKKFVFPNDDTADYF”: the protein production result is “failed”.

With “MKNFLETIEDMILIINREGRLLYANTAVPKKLGYPHEELMSMHILTITSAGKMAEGEKILAELFAGKKESLPLSLEKKEGTSIPAKARIWQGKWHNEPCLFAIIKDLSKEERASSPPFLEHHHHHH”, the protein production result was “not failed”.

As for “MKNFVVKTIANAGALAVAVWLLDKITLTGDSTGKKIGTLIVVALVFGLVNFLVKPIVKVLTFPLFILTLGLITLVVNALMLLLTSWLADKLDLSFHVEGFWTAVVGGLIISVVSWALNVVLPDDKD”, the protein production result is “failed”.

Regarding “MKNIVAGILAHVDSGKTTLSEAMLYQTGRIRKLGRVDHQDTYLDTDSQEKDRGITIFSKQAELTYEDMHIALLDTPGHVDFGTEMERTLQVLDYAVLVINGMDGVQSHTETLWKLLERYEIPVFIFVNKMDMTGYDREYLMDNIRHRLSDGCVDFLCEDAGEHIAMCDENMLERFLETGENREDDIAKAVADRKLFPCYFGSALKNDGVAELLDGMNRYVTEPRRTDEFGARVFKIGRDDKGERLTYMKITGGTLRLKDVLTLTGRQGEETLEKVNQIRVYSGAKYDMVDHVTAGCVCAVPGLVNTYGRQGIGACPDGELPSLEPVLSYKVMYPTDVDAVTMVSKLRQLEEEDPLLQVQWNEAAGEIYIKVMGQVQLEVVAQMVRDRFGIAITYGQGRITYKETIAAPVMGVGHFEPLRHYAEVHLLLEPMENGSGMCFDSICSEDVLDKNWQRLILTHLQEREFRGVLTGSPITDMKITITAGRAHQKHTEGGDFRQATYRAVRQGLMMAESVLLEPVYAFKIEVPQEYAGRVLADIVKMSGSMDGQEIAGETTVITGHAPVYTMREYYSELTAFSRGTGRLQVDIDGYQPCHNTEEVLAERHYDPELDRFNPSSSVFCAHGAGYLVDWYDVYENMHVKEDPGFEISGQLGYTEDGDVTDIPVNRPGKSVSDMSITDEELSEIFARTFGGDYKDKDVALNGRFRRTTSEYKVNGTSSRGSDGTAGGGASAGTAGDSSNSGYRGNGQYNKSQSRDRQPGNGPVVGSRPADRGIATPGAFKRRKSGEDYVIVDGYNVIFAWDTLRELSEHNIDSARGKLMDILSNYQGYMNCHLIVVFDGYKVKDNKGERFPYDDIEVVYTKEGETADAHIEKLTHELARKHKVTVVTSDGLEQIVTMGQGAIRMSSRDFKLEVERVNEHLRENYLKND”, the protein production entry was “failed”.

For “MKNLLKRYVSIKNIIKVIELDFFANLKLRYYKLAMKLFKIEDEKFDEILLKAGMNAVSSTYLPVVFLTSIILGLIIFIIFLIVFNIFYAIFGLIGGIFIVILIGVLYPYVLAEEKAKSIDENLPYAFAFISALSSANIPVVEIFTSLSKEDIYGGMSKEAKEIVKDTKVFNYDIITTFLRRARITPSKKLSSVYYNIVASLIVGAEMKNIFHEIYERLMEDRKLELFEAIEKVEILSEFYVIACGMIPLFVVMTVPVASSISAILQTASLFGDPKLLPLTFYLWVPIASIIFMGLVYGILPKDFKLNVSLLDVLKEFDEPEIEGIKMKFKWKPVHFITLFFWMLSIISFMLFFIRKSIFKFHGTDFLMFGILFLILPFILTSYWHFIIENQKERYYPIFLNDLTMAVRSGMDIIRAMQVCARTNYGPLTKIVKKMAIQMSWGRPVNEVFADLERTEKSLIAKRIASILKECAVSGGDVKDILTSVTVHAYKLSEMKREISARQFIYVVVIYLSFFLYIGTSYIMVHSLLPTLLKNIHGLSVEFYKNYLFQGILIYSIFSGASLGILTERSIIAGIKHILLMLIVGYMLFKFYIGG”, the protein production entry is recorded as “failed”.

With “MKNRALLLIDFQKGIESPTQQLYRLPAVLDKVNQRIAVYRQHHAPIIFVQHEETELPFGSDSWQLFEKLDTQPTDFFIRKTHANAFYQTNLNDLLTEQAVQTLEIAGVQTEFCVDTTIRMAHGLGYTCLMTPKTTSTLDNGHLTAAQIIQHHEAIWAGRFLTFLSL”, the protein production result was “not failed”.

Take “MKNTPIERNVIDETINEFQIVDFSKATIREVKAIASKAEAVSGVEFIKMEMGVPGLPASAVGVKAEIEALQNGIASLYPDINGLPELKKEASDFIKAFINVDLSPEGCVPVTGSMQGTFASFLTCSQCDEKKDTILFIDPGFPVQKQQLVVMGQKYETFDVYDYRGDKLKEKLESYLRKGNISAIIYSNPNNPSWICLKDEELRIIGELATQYDVIVLEDLAYFAMDFRQDLSTPYQAPFQPSVAHYTDNYVLLISGSKAFSYAGQRIGVSCISDKLYHRSYPGLTKRYGGGTFGTVFIHRVLYALSSGTSHSAQYAMAAMLKAANEGQYNFLSEVKVYGDRAQKLKEIFLRHGFYLVYDNDLGDPIADGFYFTIGYPGMTSGELAKELMYYGVSAISLVTTGSHQEGLRACTSFIKDHQYAQLDERMKLFAEHHPIA”: the protein production entry is reported as “not failed”.

“MKNVGDLMQRLQKMMPAHIKPAFKTGEELLAWQKEQGAIRSAALERENRAMKMQRTFNRSGIRPLHQNCSFENYRVECEGQMNALSKARQYVEEFDGNIASFIFSGKPGTGKNHLAAAICNELLLRGKSVLIITVADIMSAMKDTFRNSGTSEEQLLNDLSNVDLLVIDEIGVQTESKYEKVIINQIVDRRSSSKRPTGMLTNSNMEEMTKLLGERVMDRMRLGNSLWVIFNWDSYRSRVTGKEY”: the protein production result is listed as “failed”.

In the case of “MKNVKFIKKSESVIGLWLPILVILILFAFLVAESVIMKDIILSNSVVALATAIMASAALVTILVSNRQVQLMARQQRLKAIEDRLEKFYIPLIKAFSSYVYTAQTEDEIETIITCRRYLAGNNLLRVLPMHFKFKADKIAGSANWTFYAKEDFEQWKEALDVLWEEFLEVLKEYYTLSGTEISLPEKPDWLIGYK”, the protein production result is “failed”.

In the case of “MKNVLYTLFAISICLMLGKLANYLLAALPASLYGMIIYALFLQLNWFSPDKITKTNQWFIKHMGVCLVPAGMGIINHFQLIQQHGIALVVIIFSSTFILLTVIGYLSERYLITPDNIKSKAPTGSR”, the protein production result is listed as “failed”.

With “MKPADLTNADRIALELGHAGRNAIPYLDDDRNADRPFTLNTYRPYGYTPDRPVVVVQHGVLRNGADYRDFWIPAADRHKLLIVAPTFSDEIWPGVESYNNGRAFTAAGNPRHVDGWTYALVARVLANIRAAEIADCEQVYLFGHSAGGQFVHRLMSSQPHAPFHAVTAANPGWYTLPTFEHRFPEGLDGVGLTEDHLARLLAYPMTILAGDQDIATDDPNLPSEPAALRQGPHRYARARHYYEAGRRAAAQRGLPFGWQLQVVPGIGHDGQAMSQVCASLWFDGRMPDAAELARLAGSQSA”, the protein production entry was “failed”.

Regarding “MKPALHAIDATLPAPPTYTPAGNECALFEHAWKRRVPLLLKGPTGCGKTRFVAHMAARLGLPLFTVSCHDDLTAADLTGRYLLKGGETVWVDGPLTRAVRQGGICYLDEVVEARKDVAVVLHPLADDRRVLPLERTGEELQAPPHFMLVVSYNPGYQSLLKALKPSTRQRFAAIEFGFLAPEQEIAVVAAESGLPSERVAPLVALAGRLRKLKGHDLEEGVSTRLLVYCASLISEGLPVRDAVLAGLIEPLTDDADVKAALIEVAGVVIGLEHHHHHH”, the protein production entry was “not failed”.

With “MKPDDLPSDVSSDPLLRLRRQISDEASQCVACGLCVPHCPSYRVTLSEADSPRGRIALMSGVAAGRIPMNARFALHMDRCLTCRACEAVCPNHVRFGELIDDAREMISSPPLEFGGNNPGARVSSFRKWVERELIARPSRIDALRPLLRFYQRSGLQKWVRKSGLLGKTKLALLEAQIPFIDQPRSSSWSVVYPAVGKPRGEVGLFLGCVARVADATTLDAALFVLNQLGYVVHVPTGQTCCGALHQHRGDMDAAAQLERQNVEAFAGLDLGAIITTASGCGAQLSEYSSFSGSQRTTRAPAVSSQAGGETTRRSPPKVLDISEFLAEAEGWEDARFQPLPHKILVHEPCTLRNVLRASTYAYKLLERIPQAQVVPLAGNDQCCGAAGTYFLDQPEISAALLEDKVTALKAGQACYLATSNVGCALHIAAGLRRPGLGIEVIHPVTLIARQMGMQSQSLK”, the protein production result was “failed”.

As to “MKPEHRMDTISKLEEGAETPVTGRVMKISSPRTFTTRKGREGKLANVIIADDTGELRAVFWTENIKLLKKFREGDVIRIKDVNIRGGFGGRKEAHLMPRSTVEVLDPLEHHHHHH”, the protein production result was “not failed”.

Turning to “MKPGGTVRALDRLGSAEYPSSHMEVLVAEGTRPSRQRNQAAAAAAGEILYFLDDDSLTSPDFLARAAAHLADPSIAAVGGPSLTPASDSRFQRAIGVVLASRLGGGGARNRYRATGSPRRTSERELILCNLAMRRDVFLAEGGLDERLYPNEENELMDRISKRGMSLVHDPDLAVRRSQRPTFRAFVRQFFGYGRGRGEQTRIAGVRSVVDFLPTVFLIYLLLLPVAPWAPCFLPAALYGAAVMVSALSGAVHSRLYAALPWLVVLYPTLHLCYGAGLLKGLLAPRFRSGGGETAPVTIRCVKEFGTPWHLPAHGPREVPR”, the protein production entry is listed as “failed”.

Turning to “MKPKVFITREIPEVGIKMLEDEFEVEVWGDEKEIPREILLKKVKEVDALVTMLSERIDKEVFENAPKLRIVANYAVGYDNIDIEEATKRGIYVTNTPDVLTDATADLAFALLLATARHVVKGDRFVRSGEWKKRGVAWHPKWFLGYDVYGKTIGIIGLGRIGQAIAKRAKGFNMRILYYSRTRKEEVERELNAEFKPLEDLLRESDFVVLAVPLTRETYHLINEERLKLMKKTAILINIARGKVVDTNALVKALKEGWIAGAGLDVFEEEPYYNEELFKLDNVVLTPHIGSASFGAREGMAELVAKNLIAFKRGEIPPTLVNREVIKIRKPGFE”, the protein production result is listed as “not failed”.

With “MKPNEVQIQLERLFRTPIEHPDSSKTAPIAISDLFVQIDPAAGEVQLFNDKDEELHRVVIYDWIQEGRTEIPSAMRQELRAAVKRLHAARFFDKDQFVRPFSVALTQEDFTIIEELLFIDDELIQLDSALLENLDEELNNFLAELLPDIKLEHHHHHH”, the protein production result is “not failed”.
